The text below walks through data of publication PMC11307329.

This data set deals with T1, XisF4 (native excisionase) (Pseudomonas aeruginosa PAO1), ORF:74e9b1d3.
T1 sequence: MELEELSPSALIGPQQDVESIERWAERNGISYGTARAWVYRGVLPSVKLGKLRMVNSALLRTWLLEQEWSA
As to the kind of experiment: EMSA. (In EMSA bound probe runs differently from free probe, usually more slowly.)
For “AGCTTTCATGAATCTCTCCGTTGATTATGTATAGGCCTAACGCCTGAACCTCAACAAGCACTTACCATGCCAAATATCAAACCGCGCCACGATCAAGGAAACTGGGTTCCTTTCTCGATGAGAGTCAAACTTAAAACGGACAGGATGTGACATTTTTTGACAGCTGGATTTCCTCGATTTGGCAGCCCCTGTTATCTGCGTTATAAGGCACCTCAATAGCCCTTCTGCGATTCCTTCCCCATG (double strand) [pilA promoter]”, the binding entry is given as “binds”.
The result for “CGGTCGCCTTGTTCATGAGAAAAGCCTTTTAAAACAGTGAGTTGCGCAATAATTTCAGCCGTACCTCTTTCGAGGTAGGGGCGCGCATCTAGGCACGGAACGGCCGGTATTTCATTGATTCCTATCAAATTTGCATAGGAACACCTTCCCTAGGCTCTCGCTGAACGCTGTCCGTGCAGAGAGTTTAGCC (double strand) [narL promoter]” reads “binds”.
To “CGCGCAGACTGTATCGAAGTATTTCCGACGCCTGGCGTTCTGTGATCGATTCGGCTCGGTTGGAGTGCGCTGCCGCACGCTTTACAGCCGGACGGAGCGGGGCACCGGATCTACTGCAAAAGCTGATAGTTGTCTTCCCGGGTGACGGCGTTGCACGGTCCTGCGGCGTGCAACCCGGCCTGGGCGAAATACCGGCGGAGCGGACCAGGCTATCCCGTCGGAGGCGATGTCGCCGGGCTGCTGGCTTTCAAGGTTTCCCTTCGATGACCAGGAGCTACCCATG (double strand) [lasA promoter]” belongs “binds”; to “GCTCATTCCGTCACTATTCGTGGCATTAGCCATACGCAGCTAGAGAAATAATTACCCTGGAGAAATTATTTCCCCAAAGCCACGTCAGGGCAACTATTTCCCCGGAATAAATTTCTATATGAGCACGTCAGCCGATAGAGCAAGACTATTAATCAAGAAAATCGGCCCCAAAAAGGTCAGCCTTCACGGGGGCGATTACGAGAGATGGAAAAGCGTCAGCAAAGGCGCGATTCGCGTGAGCACGGAAGAAATCGACGTCCTAGTAAAAATTTTCCCTAATTACGCATTATGGATTGCAAG (double strand) [xisF4 promoter]”, “binds”.
